Experimental findings from publication PMC4128088 (Structure (London, England : 1993), 2014) are described below.

One may read the stoichiometry N as the number of molecules, sites or subunits per partner or assembly.

The data set concerns the molecule itself. Nature of the data set: SAXS.

B1: Human Presequence Protease E107Q (hPreP E107Q) (enzyme, UniProt Q5JRX3 34-1037, looked up)
chain: CERALQYKLGDKIHGFTVNQVTSVPELFLTAVKLTHDDTGARYLHLAREDTNNLFSVQFRTTPMDSTGVPHILQHTVLCGSQKYPCRDPFFKMLNRSLSTFMNAFTASDYTLYPFSTQNPKDFQNLLSVYLDATFFPCLRELDFWQEGWRLEHENPSDPQTPLVFKGVVFNEMKGAFTDNERIFSQHLQNRLLPDHTYSVVSGGDPLCIPELTWEQLKQFHATHYHPSNARFFTYGNFPLEQHLKQIHEEALSKFQKIEPSTVVPAQTPWDKPREFQITCGPDSFATDPSKQTTISVSFLLPDITDTFEAFTLSLLSSLLTSGPNSPFYKALIESGLGTDFSPDVGYNGYTREAYFSVGLQGIAEKDIETVRSLIDRTIDEVVEKGFEDDRIEALLHKIEIQMKHQSTSFGLMLTSYIASCWNHDGDPVELLKLGNQLAKFRQCLQENPKFLQEKVKQYFKNNQHKLTLSMRPDDKYHEKQAQVEATKLKQKVEALSPGDRQQIYEKGLELRSQQSKPQDASCLPALKVSDIEPTIPVTELDVVLTAGDIPVQYCAQPTNGMVYFRAFSSLNTLPEELRPYVPLFCSVLTKLGCGLLDYREQAQQIELKTGGMSASPHVLPDDSHMDTYEQGVLFSSLCLDRNLPDMMQLWSEIFNNPCFEEEEHFKVLVKMTAQELANGIPDSGHLYASIRAGRTLTPAGDLQETFSGMDQVRLMKRIAEMTDIKPILRKLPRIKKHLLNGDNMRCSVNATPQQMPQTEKAVEDFLRSIGRSKKERRPVRPHTVEKPVPSSSGGDAHVPHGSQVIRKLVMEPTFKPWQMKTHFLMPFPVNYVGECIRTVPYTDPDHASLKILARLMTAKFLHTEIREKGGAYGGGAKLSHNGIFTLYSYRDPNTIETLQSFGKAVDWAKSGKFTQQDIDEAKLSVFSTVDAPVAPSDKGMDHFLYGLSDEMKQAHREQLFAVSHDKLLAVSDRYLGTGKSTHGLAILGPENPKIAKDPSWIIQ
Take B1: the “stoichiometry N” value was found to be 2.
